Measured values: US20100291540A1

Columns and labels:
[1] = molecular target: starch binding domain derived from Rhizopus oryzae glucoamylase (RoSBD) (Rhizopus oryzae) (UniProt P07683); experiment: competition sandwich ELISA, 250 nM gp140 premixed with panel, RoSBD-coated plate; competes with the panel's HIV antigen
[2] = molecular target: starch binding domain derived from Aspergillus niger glucoamylase (AnSBD) (Aspergillus niger) (UniProt P69328); experiment: competition sandwich ELISA, 250 nM gp140 premixed with panel, AnSBD-coated plate; competes with the panel's HIV antigen

Substance: HIV1 gp140 antigen
- inhibition rate [1]: 42.9%
- inhibition rate [2]: 40.1%
